Measurements reported in patent US20230383012A1 (Xencor, published 2023).
Changes are numbered by the printed parent chain.

B1: XENP39368 (bispecific antibody)
heavy: EVQLLESGGGLVQPGGSLRLSCAASGFTFSSYDMSWVRQAPGKRLEWVSTISSGGSFTHYPDSVKGRFTISRDNSKNTLYLQMNSLRAEDTAVYYCARRSLDWYFDVWGAGTTVTVSSASTKGPSVFPLAPSSKSTSGGTAALGCLVKDYFPEPVTVSWNSGALTSGVHTFPAVLQSSGLYSLSSVVTVPSSSLGTQTYICNVNHKPSDTKVDKKVEPKSCDKTHTCPPCPAPPVAGPSVFLFPPKPKDTLMISRTPEVTCVVVDVKHEDPEVKFNWYVDGVEVHNAKTKPREEEYNSTYRVVSVLTVLHQDWLNGKEYKCKVSNKALPAPIEKTISKAKGQPREPQVYTLPPSREEMTKNQVSLTCDVSGFYPSDIAVEWESDGQPENNYKTTPPVLDSDGSFFLYSKLTVDKSRWEQGDVFSCSVMHEALHNHYTQKSLSLSPGK
scFv-Fc: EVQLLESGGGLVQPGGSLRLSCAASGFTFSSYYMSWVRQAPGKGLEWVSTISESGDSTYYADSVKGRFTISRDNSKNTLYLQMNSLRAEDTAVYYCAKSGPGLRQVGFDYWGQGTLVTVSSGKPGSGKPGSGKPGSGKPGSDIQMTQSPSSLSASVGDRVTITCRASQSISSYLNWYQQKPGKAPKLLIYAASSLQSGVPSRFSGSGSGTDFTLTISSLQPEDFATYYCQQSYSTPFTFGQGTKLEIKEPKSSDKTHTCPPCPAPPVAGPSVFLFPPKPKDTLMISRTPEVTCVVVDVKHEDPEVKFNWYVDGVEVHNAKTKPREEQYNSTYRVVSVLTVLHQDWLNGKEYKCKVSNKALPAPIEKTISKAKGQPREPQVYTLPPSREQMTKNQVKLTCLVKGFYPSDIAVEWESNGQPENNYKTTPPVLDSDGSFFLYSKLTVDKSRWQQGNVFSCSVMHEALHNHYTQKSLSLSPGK
light: EIVLTQSPGTLSLSPGERATLSCRVSSSIQSTNLHWYQQKPGQSPRPLIYGTSVLATGVPVRFSGSGSGTDYTLTISRLEPEDFAVYYCQQWSSYPLYTFGGGTKVEIKRTVAAPSVFIFPPSDEQLKSGTASVVCLLNNFYPREAKVQWKVDNALQSGNSQESVTEQDSKDSTYSLSSTLTLSKADYEKHKVYACEVTHQGLSSPVTKSFNRGEC
B2: XENP39365 (bispecific antibody)
heavy: B1 heavy
scFv-Fc: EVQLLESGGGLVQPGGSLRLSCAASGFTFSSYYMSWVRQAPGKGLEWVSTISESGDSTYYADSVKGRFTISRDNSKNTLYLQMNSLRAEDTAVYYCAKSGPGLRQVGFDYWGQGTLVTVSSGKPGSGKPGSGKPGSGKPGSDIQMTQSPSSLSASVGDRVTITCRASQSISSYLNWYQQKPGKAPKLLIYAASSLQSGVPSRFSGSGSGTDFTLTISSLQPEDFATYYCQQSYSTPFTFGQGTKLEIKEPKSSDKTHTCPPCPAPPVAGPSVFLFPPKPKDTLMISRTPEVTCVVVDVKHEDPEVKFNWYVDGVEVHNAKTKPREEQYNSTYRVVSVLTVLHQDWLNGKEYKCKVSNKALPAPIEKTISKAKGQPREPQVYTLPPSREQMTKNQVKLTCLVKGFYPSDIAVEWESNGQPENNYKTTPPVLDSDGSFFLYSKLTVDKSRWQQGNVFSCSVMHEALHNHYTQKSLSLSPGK
light: B1 light with S27L, T32S, S53N, V54L, T57S
B3: XENP38514 (bispecific antibody)
heavy: B1 heavy with S31V, A97V
scFv-Fc: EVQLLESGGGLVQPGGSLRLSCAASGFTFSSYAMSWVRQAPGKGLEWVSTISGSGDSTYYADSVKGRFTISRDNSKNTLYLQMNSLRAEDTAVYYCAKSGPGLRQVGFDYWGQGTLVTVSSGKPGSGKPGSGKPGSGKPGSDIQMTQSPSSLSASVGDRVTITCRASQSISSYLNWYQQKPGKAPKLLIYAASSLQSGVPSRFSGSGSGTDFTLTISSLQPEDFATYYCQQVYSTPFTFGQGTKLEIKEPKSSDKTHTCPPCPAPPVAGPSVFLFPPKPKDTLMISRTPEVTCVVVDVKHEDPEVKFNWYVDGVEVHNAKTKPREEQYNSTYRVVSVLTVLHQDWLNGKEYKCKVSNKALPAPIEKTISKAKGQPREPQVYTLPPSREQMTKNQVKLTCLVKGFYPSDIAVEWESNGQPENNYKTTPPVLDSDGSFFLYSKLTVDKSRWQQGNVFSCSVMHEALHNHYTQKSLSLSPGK
light: B1 light
notes: also called αPDL1×αCD28 bsAb XENP38514
B4: PDL1 binding domain 2G4_H1.12_L1.68 (Fab, V domains shown)
VH: EVQLLESGGGLVQPGGSLRLSCAASGFTFSVYDMSWVRQAPGKRLEWVSTISSGGSFTHYPDSVKGRFTISRDNSKNTLYLQMNSLRAEDTAVYYCVRRSLDWYFDVWGAGTTVTVSS
VL: EIVLTQSPGTLSLSPGERATLSCRVSSSIQSTNLHWYQQKPGQSPRPLIYGTSNLASGVPVRFSGSGSGTDYTLTISRLEPEDFAVYYCQQWSSYPLYTFGGGTKVEIK
B5: PDL1 binding domain 2G4_H1.12_L1.66 (Fab, V domains shown)
VH: B4 VH
VL: B4 VL with S57T
B6: PDL1 binding domain 2G4_H1.12_L1.14 (Fab, V domains shown)
VH: B4 VH
VL: B4 VL with T32S
notes: also called as in XENP40409 and XENP40706
B7: XENP37561 (bispecific antibody)
chain 1: B1 heavy with A97V, L101G
chain 2: not shown
chain 3: B1 light with Q30S, T32S, V54N, T57S
B8: XENP37412 (bispecific antibody)
chain 1: B1 heavy with A97V, L101G
chain 2: not shown
chain 3: B1 light with Q30S, T32S, V54N, T57S
B9: XENP37560 (bispecific antibody)
chain 1: B1 heavy with A97V, L101G
chain 2: not shown
chain 3: B1 light with Q30S, T32S, V54N, T57S
B10: XENP37261 (bispecific antibody)
chain 1: B1 heavy with A97V, L101G
chain 2: not shown
chain 3: B1 light with Q30S, T32S, V54N, T57S
B11: XENP36233 (bispecific antibody)
chain 1: B1 heavy with A97V, L101G
chain 2: not shown
chain 3: B1 light with Q30S, T32S, V54N, T57S
B12: XENP37559 (bispecific antibody)
chain 1: B1 heavy with A97V, L101G
chain 2: not shown
chain 3: B1 light with Q30S, T32S, V54N, T57S

Molecular target: T1, human PDL1 (human, UniProt Q9NZQ7 19-238)
T1 construct: his-tagged in the Carterra assay; also called PDL1 antigen
Test: descriptor in the SEB-stimulated PBMC example

binding result | Binder
binds | B1
binds | B2

Molecular target: T1, human PDL1
Test: PDL1 binding affinity; Biacore per paragraph 695, in PDL1×CD28 bsAb

Kd [nM] | Binder
0.17 | B3
0.8 | B4
0.86 | B5
0.42 | B6

Molecular target: T2, human CD28 antigen (human, UniProt P10747 19-152)
T2 construct: also called his-tagged CD28 antigen
Test: CD28 binding affinity; Octet per paragraph 712, scFv in 1+1 Fab-scFv-Fc PDL1×CD28 bsAb

Kd [nM] | Binder
37 | B7
286 | B8
96 | B9
36 | B10
240 | B11
180 | B12
